Tests used:
OsUGT91C1 = biological target: T1, OsUGT91C1 (Oryza sativa, UniProt Q0DPB7); test: X-ray crystal structure; type: binding; conditions: complexes with Reb E, ST or STB; UDP-glucose site
T1 construct: gene Os03g0702000; synthetic coding region in pET28b, His-tagged, E. coli BL21(DE3); HisTrap and gel filtration; tag removal not mentioned; monomer
T1 sequence (Q0DPB7 1-462): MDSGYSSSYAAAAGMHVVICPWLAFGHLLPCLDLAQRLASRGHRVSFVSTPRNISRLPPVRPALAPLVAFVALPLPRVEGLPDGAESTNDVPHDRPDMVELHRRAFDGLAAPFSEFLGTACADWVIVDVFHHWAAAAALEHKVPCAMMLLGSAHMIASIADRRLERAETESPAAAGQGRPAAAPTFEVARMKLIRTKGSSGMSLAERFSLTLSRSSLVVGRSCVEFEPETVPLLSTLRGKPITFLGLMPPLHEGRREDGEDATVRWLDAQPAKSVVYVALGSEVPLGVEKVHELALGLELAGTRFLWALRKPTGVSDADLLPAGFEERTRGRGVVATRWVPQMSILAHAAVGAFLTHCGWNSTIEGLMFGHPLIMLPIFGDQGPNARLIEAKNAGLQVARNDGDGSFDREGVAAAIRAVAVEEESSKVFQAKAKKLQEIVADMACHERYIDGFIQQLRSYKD

[1] = substrate: C=C1C[C@@]23CC[C@H]4[C@@](C)(CCC[C@@]4(C)C(=O)O[C@@H]4O[C@H](CO)[C@@H](O)[C@H](O)[C@H]4O)[C@@H]2CC[C@]1(O[C@@H]1O[C@H](CO)[C@@H](O)[C@H](O)[C@H]1O)C3; test: UDP-Glo glycosyltransferase assay, Michaelis-Menten fit; type: biochemical, Oryza sativa; conditions: 200 μM UDP-glucose; combined beta(1-2) glucosylation at R1 and R2
[2] = substrate: C=C1C[C@@]23CC[C@H]4[C@@](C)(CCC[C@@]4(C)C(=O)O)[C@@H]2CC[C@]1(O[C@@H]1O[C@H](CO)[C@@H](O)[C@H](O)[C@H]1O)C3; test: as above; type: biochemical, Oryza sativa; conditions: 200 μM UDP-glucose; beta(1-2) glucosylation at R1
purified protein = substrate: C=C1C[C@@]23CC[C@H]4[C@@](C)(CCC[C@@]4(C)C(=O)O[C@@H]4O[C@H](CO)[C@@H](O)[C@H](O)[C@H]4O)[C@@H]2CC[C@]1(O[C@@H]1O[C@H](CO)[C@@H](O)[C@H](O[C@@H]2O[C@H](CO)[C@@H](O)[C@H](O)[C@H]2O)[C@H]1O[C@@H]1O[C@H](CO)[C@@H](O)[C@H](O)[C@H]1O)C3; test: purified protein; conditions: 200 μM UDP-glucose; beta(1-2) glucosylation at R2
[3] = substrate: C=C1C[C@@]23CC[C@H]4[C@@](C)(CCC[C@@]4(C)C(=O)O)[C@@H]2CC[C@]1(O[C@@H]1O[C@H](CO)[C@@H](O)[C@H](O)[C@H]1O[C@@H]1O[C@H](CO)[C@@H](O)[C@H](O)[C@H]1O)C3; test: UDP-Glo glycosyltransferase assay, Michaelis-Menten fit; type: biochemical, Oryza sativa; conditions: 200 μM UDP-glucose; beta(1-6) glucosylation at R1; crystal structure with UDP, R1 end at active site

Molecule	X-ray crystal structure (OsUGT91C1)	Km [1] [µM]	kcat [1] [s⁻¹]	kcat/Km [1] [M⁻¹ s⁻¹]	Km [2] [µM]	kcat [2] [s⁻¹]	kcat/Km [2] [M⁻¹ s⁻¹]	Km (purified protein) [µM]	kcat (purified protein) [s⁻¹]	kcat/Km (purified protein) [M⁻¹ s⁻¹]	Km [3] [µM]	kcat [3] [s⁻¹]	kcat/Km [3] [M⁻¹ s⁻¹]
O=c1ccn([C@@H]2O[C@H](COP(=O)(O)OP(=O)(O)O)[C@@H](O)[C@H]2O)c(=O)[nH]1 [UDP]	UDP is bound identically in all four complexes												
OsUGT91C1 (Oryza sativa Japonica Group; F208M) (protein, synthetic coding region in pET28b, His-tagged, E. coli BL21(DE3); HisTrap and gel filtration; tag removal not mentioned; monomer) MDSGYSSSYAAAAGMHVVICPWLAFGHLLPCLDLAQRLASRGHRVSFVSTPRNISRLPPVRPALAPLVAFVALPLPRVEGLPDGAESTNDVPHDRPDMVELHRRAFDGLAAPFSEFLGTACADWVIVDVFHHWAAAAALEHKVPCAMMLLGSAHMIASIADRRLERAETESPAAAGQGRPAAAPTFEVARMKLIRTKGSSGMSLAERMSLTLSRSSLVVGRSCVEFEPETVPLLSTLRGKPITFLGLMPPLHEGRREDGEDATVRWLDAQPAKSVVYVALGSEVPLGVEKVHELALGLELAGTRFLWALRKPTGVSDADLLPAGFEERTRGRGVVATRWVPQMSILAHAAVGAFLTHCGWNSTIEGLMFGHPLIMLPIFGDQGPNARLIEAKNAGLQVARNDGDGSFDREGVAAAIRAVAVEEESSKVFQAKAKKLQEIVADMACHERYIDGFIQQLRSYKD		20.9 ± 1.7	0.04 ± 0.00167	1910	18.7 ± 1.7	0.065 ± 0.00167	3480	25.2 ± 2.0	0.0483	1920			
OsUGT91C1 (Oryza sativa Japonica Group) (protein, synthetic coding region in pET28b, His-tagged, E. coli BL21(DE3); HisTrap and gel filtration; tag removal not mentioned; monomer) MDSGYSSSYAAAAGMHVVICPWLAFGHLLPCLDLAQRLASRGHRVSFVSTPRNISRLPPVRPALAPLVAFVALPLPRVEGLPDGAESTNDVPHDRPDMVELHRRAFDGLAAPFSEFLGTACADWVIVDVFHHWAAAAALEHKVPCAMMLLGSAHMIASIADRRLERAETESPAAAGQGRPAAAPTFEVARMKLIRTKGSSGMSLAERFSLTLSRSSLVVGRSCVEFEPETVPLLSTLRGKPITFLGLMPPLHEGRREDGEDATVRWLDAQPAKSVVYVALGSEVPLGVEKVHELALGLELAGTRFLWALRKPTGVSDADLLPAGFEERTRGRGVVATRWVPQMSILAHAAVGAFLTHCGWNSTIEGLMFGHPLIMLPIFGDQGPNARLIEAKNAGLQVARNDGDGSFDREGVAAAIRAVAVEEESSKVFQAKAKKLQEIVADMACHERYIDGFIQQLRSYKD		49.5 ± 5.3	0.0333 ± 0.00167	673	24.9 ± 2.5	0.0483 ± 0.00167	1940	45.7 ± 3.0	0.0203	445	71 ± 12	0.0105 ± 0.0005	148
OsUGT91C1 (Oryza sativa Japonica Group; F208M/F379A) (protein, synthetic coding region in pET28b, His-tagged, E. coli BL21(DE3); HisTrap and gel filtration; tag removal not mentioned; monomer) MDSGYSSSYAAAAGMHVVICPWLAFGHLLPCLDLAQRLASRGHRVSFVSTPRNISRLPPVRPALAPLVAFVALPLPRVEGLPDGAESTNDVPHDRPDMVELHRRAFDGLAAPFSEFLGTACADWVIVDVFHHWAAAAALEHKVPCAMMLLGSAHMIASIADRRLERAETESPAAAGQGRPAAAPTFEVARMKLIRTKGSSGMSLAERMSLTLSRSSLVVGRSCVEFEPETVPLLSTLRGKPITFLGLMPPLHEGRREDGEDATVRWLDAQPAKSVVYVALGSEVPLGVEKVHELALGLELAGTRFLWALRKPTGVSDADLLPAGFEERTRGRGVVATRWVPQMSILAHAAVGAFLTHCGWNSTIEGLMFGHPLIMLPIAGDQGPNARLIEAKNAGLQVARNDGDGSFDREGVAAAIRAVAVEEESSKVFQAKAKKLQEIVADMACHERYIDGFIQQLRSYKD		11.7 ± 1.0	0.0467 ± 0.00167	3990	9.7 ± 1.9	0.0583 ± 0.00167	6010	15.1 ± 2.6	0.0283	1880			
OsUGT91C1 (Oryza sativa Japonica Group; F379A) (protein, synthetic coding region in pET28b, His-tagged, E. coli BL21(DE3); HisTrap and gel filtration; tag removal not mentioned; monomer) MDSGYSSSYAAAAGMHVVICPWLAFGHLLPCLDLAQRLASRGHRVSFVSTPRNISRLPPVRPALAPLVAFVALPLPRVEGLPDGAESTNDVPHDRPDMVELHRRAFDGLAAPFSEFLGTACADWVIVDVFHHWAAAAALEHKVPCAMMLLGSAHMIASIADRRLERAETESPAAAGQGRPAAAPTFEVARMKLIRTKGSSGMSLAERFSLTLSRSSLVVGRSCVEFEPETVPLLSTLRGKPITFLGLMPPLHEGRREDGEDATVRWLDAQPAKSVVYVALGSEVPLGVEKVHELALGLELAGTRFLWALRKPTGVSDADLLPAGFEERTRGRGVVATRWVPQMSILAHAAVGAFLTHCGWNSTIEGLMFGHPLIMLPIAGDQGPNARLIEAKNAGLQVARNDGDGSFDREGVAAAIRAVAVEEESSKVFQAKAKKLQEIVADMACHERYIDGFIQQLRSYKD		16.5 ± 2.6	0.045 ± 0.00167	2730	19.0 ± 2.6	0.0967 ± 0.00333	5090	37.0 ± 2.5	0.0193	523			

Source: article PMC8639739, “Catalytic flexibility of rice glycosyltransferase OsUGT91C1 for the production of palatable steviol glycosides” (Nature Communications, 2021)
